We go through three molecules from publication PMC3580866 (Biochemistry, 2013).

The data set “SEC” deals with the molecule itself. Put plainly: SEC.
The target in data set [1] is full length human SLBP, unphosphorylated, untagged, co-expressed with hSLIP1 in E. coli (human, UniProt Q14493 1-270). Nature of the data set: AUC.
The data set “AUC” deals with the molecule itself. Nature of the data set: AUC.

B1: MIF4Gdb from Danio rerio (zebrafish orthologue of SLIP1) (natural protein, Danio rerio (zebrafish))
chain: ENSSKEDYKIQSFDLETQKLLKTALKDPGSVDLEKVSSVIVDQSLKDQVFSREAGRICYTIVQAEAKQTNGSVFRRNLLNRLQQEFKAREETRKRSTQEWVCLVSFICNIFDYLKVNNMPMVALVHPVYDCLFRLAQSDALKNEEEVDCLVLQLHRIGDQLEKMNVQLMDELFNLLRDGFLLQEDLSSMGRLLLLEILEFRAGGWKLSDTAQKYYYSEVTD
Regarding B1, the “stoichiometry N” value in “SEC” is 2.

B2: human SLIP1, wild type, (His)6-tagged, co-expressed with hSLBP from pRSF-Duet (natural protein, UniProt A9UHW6 1-222, looked up)
chain: MGEPSREEYKIQSFDAETQQLLKTALKDPGAVDLEKVANVIVDHSLQDCVFSKEAGRMCYAIIQAESKQAGQSVFRRGLLNRLQQEYQAREQLRARSLQGWVCYVTFICNIFDYLRVNNMPMMALVNPVYDCLFRLAQPDSLSKEEEVDCLVLQLHRVGEQLEKMNGQRMDELFVLIRDGFLLPTGLSSLAQLLLLEIIEFRAAGWKTTPAAHKYYYSEVSD
For B2, in data set [1], the Kd is under 900 pM.

B3: R202A human SLIP1, (His)6-tagged, expressed alone from pET28a (natural protein, UniProt A9UHW6 1-222, looked up)
chain: MGEPSREEYKIQSFDAETQQLLKTALKDPGAVDLEKVANVIVDHSLQDCVFSKEAGRMCYAIIQAESKQAGQSVFRRGLLNRLQQEYQAREQLRARSLQGWVCYVTFICNIFDYLRVNNMPMMALVNPVYDCLFRLAQPDSLSKEEEVDCLVLQLHRVGEQLEKMNGQRMDELFVLIRDGFLLPTGLSSLAQLLLLEIIEFAAAGWKTTPAAHKYYYSEVSD
As to B3, the “stoichiometry N” value in “AUC” was 2.
